Experiment [1] addresses human prothrombin (human), P00734. Description: 15N CPMG NMR relaxation dispersion, full three-site fit of eighteen curves; 298 K.
Experiment [2] has the same target. Description: 15N CPMG NMR relaxation dispersion, linear three-site fit of eighteen curves; 298 K.
Experiment [3] has the same target. Description: 15N CPMG NMR relaxation dispersion, linear three-site fit of Glu57; 298 K.
Experiment [4] concerns the target human α-thrombin (human), P00734. Description: 15N CPMG NMR relaxation dispersion of thrombin-cleaved FD22, two-site fit at the highest thrombin concentration; Arg47; FD22-C present; 288 K.
Experiment [5] shares this target. Briefly: 15N CPMG NMR relaxation dispersion of thrombin-cleaved FD22, two-site fit, highest thrombin:ligand ratio; Arg47; FD22-C present; 288 K.
Experiment [6] deals with human prothrombin (human), P00734. Briefly: 15N CPMG NMR relaxation dispersion, two-site fit; Glu58; 288 K.
Experiment [7] has the same target. Briefly: 15N CPMG NMR relaxation dispersion, two-site fit; Glu62; 288 K.
The target is the same in experiment [8]. Description: 15N CPMG NMR relaxation dispersion, two-site fit; Glu57; 288 K.
The target is the same in experiment [9]. Briefly: 15N CPMG NMR relaxation dispersion, two-site fit; Tyr63; 288 K.
Experiment [10] shares this target. Description: 15N CPMG NMR relaxation dispersion, two-site fit; Ile59; 288 K.
The target is the same in experiment [11]. Briefly: 15N CPMG NMR relaxation dispersion, two-site fit; Phe56; 288 K.

For orientation: koff means the rate constant with which the complex falls apart. High values mean fast dissociation, low ones slow dissociation.

B1: N-acetyl-Hir(55-65) (peptide)
peptide: DFEEIPEEYLQ
modifications: not fully specified; modifications not checked
In experiment [1], B1 gave a pb1 (population of the first bound state) of 1.45%, a pb2 (population of the second bound state) of 1.5% and a pb (total bound population) of 3%. Also, in experiment [2], the pb1 (population of the first bound state) was found to be 2.3%, the pb2 (population of the second bound state) was found to be 1% and the pb (total bound population) stood at 3.35%. For the same molecule, in [3], the pb1 (population of the dissociation-competent bound state) is 1.3%, the pb2 (population of the second bound state) came to 4% and the pb=pb1+pb2 (total bound population) was 5.3%.

B2: FD22-N (peptide)
peptide: FDPR
modifications: not checked
As for B2, the off-rate (koff) in [4] was determined as 310 s⁻¹. In addition, the pb (apparent fraction of the bound peptide) in experiment [5] was 3.2%.

B3: Hir(54-65) (peptide)
peptide: GDFEEIPEEYLQ
modifications: not checked
Take B3: the pb (apparent fraction of the bound peptide) in [6] was found to be 6.5%; in experiment [7], 6.9%; in experiment [8], 4.9%; in experiment [9], 6.7%; in experiment [10], 6%; in experiment [11] it was 4.5%.

The values above are taken from US20050287527A1, “Quantitative ranking of transient ligand binding to target biomolecules” (National Research Council of Canada, priority 2002, published 2005).
